From IntAct's records for PubMed 25066297

B1: Probable thioesterase PNKD (Homo sapiens), Q8N490 (parent)
chain: MAAVVAATALKGRGARNARVLRGILAGATANKASHNRTRALQSHSSPEGKEEPEPLSPELEYIPRKRGKNPMKAVGLAWYSLYTRTWLGYLFYRQQLRRARNRYPKGHSKTQPRLFNGVKVLPIPVLSDNYSYLIIDTQAQLAVAVDPSDPRAVQASIEKEGVTLVAILCTHKHWDHSGGNRDLSRRHRDCRVYGSPQDGIPYLTHPLCHQDVVSVGRLQIRALATPGHTQGHLVYLLDGEPYKGPSCLFSGDLLFLSGCGRTFEGNAETMLSSLDTVLGLGDDTLLWPGHEYAEENLGFAGVVEPENLARERKMQWVQRQRLERKGTCPSTLGEERSYNPFLRTHCLALQEALGPGPGPTGDDDYSRAQLLEELRRLKDMHKSK

Variants of: B1
Details: with mk03_human MAPK3, P27361
mk03_human MAPK3, P27361, sequence (P27361 whole entry): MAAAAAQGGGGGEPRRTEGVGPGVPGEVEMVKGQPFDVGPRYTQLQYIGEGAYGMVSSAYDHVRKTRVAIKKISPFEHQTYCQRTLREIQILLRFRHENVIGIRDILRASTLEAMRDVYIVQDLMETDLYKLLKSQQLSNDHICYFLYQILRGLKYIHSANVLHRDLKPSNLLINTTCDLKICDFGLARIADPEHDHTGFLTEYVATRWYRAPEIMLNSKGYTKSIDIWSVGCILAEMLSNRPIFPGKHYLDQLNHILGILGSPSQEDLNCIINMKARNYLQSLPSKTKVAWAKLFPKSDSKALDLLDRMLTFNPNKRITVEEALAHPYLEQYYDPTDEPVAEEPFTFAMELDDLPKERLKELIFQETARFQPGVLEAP

Row | Variant | effect of a mutation on the interaction
1 | MAAVVAATALKGRGARNARVLRGILAGATANKASHNRTRALQSHSAPEGKEEPEPLSPELEYIPRKRGKNPMKAVGLAWYSLYTRTWLGYLFYRQQLRRARNRYPKGHSKTQPRLFNGVKVLPIPVLSDNYSYLIIDTQAQLAVAVDPSDPRAVQASIEKEGVTLVAILCTHKHWDHSGGNRDLSRRHRDCRVYGSPQDGIPYLTHPLCHQDVVSVGRLQIRALATPGHTQGHLVYLLDGEPYKGPSCLFSGDLLFLSGCGRTFEGNAETMLSSLDTVLGLGDDTLLWPGHEYAEENLGFAGVVEPENLARERKMQWVQRQRLERKGTCPSTLGEERSYNPFLRTHCLALQEALGPGPGPTGDDDYSRAQLLEELRRLKDMHKSK [S46A] | disrupting interaction
